Source: patent US11319374B2, “Inhibitors of prototypic galectin dimerization and uses thereof” (INSTITUT NATIONAL DE LA RECHERCHE SCIENTIFIQUE, priority 2015, dated 2022)
Where no end group is shown, it is not given here.

Tests used:
hGal-7 homodimer = target: T1, hGal-7 homodimer (Homo sapiens, UniProt P47929); assay: hGal-7 homodimer disruption, low-SDS native gel electrophoresis / Western blotting; type: biochemical; details: recombinant hGal-7 0.5 μM, increasing peptide concentrations
T1 construct: made in house; host or cells: E. coli BL21 (DE3)
T1 sequence (P47929 2-136 limits assumed): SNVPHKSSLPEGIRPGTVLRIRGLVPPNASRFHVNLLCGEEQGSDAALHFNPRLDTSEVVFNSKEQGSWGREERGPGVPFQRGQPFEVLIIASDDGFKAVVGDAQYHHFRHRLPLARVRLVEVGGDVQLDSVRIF
Experimental: Production of recombinant hGal-7 and hGal-1. Human Gal-7 cDNA was cloned into pET-22b(+) using Ndel and HindIII restriction enzymes. Human pET-Gal-1 vector was generously donated by Dr. S. Sato (McGill University, QC, Canada). The proteins were produced in E. coli BL21 (DE3) cells at 37° C. Isopropyl p-D-1-thiogalactopyranoside (IPTG) (1 mM) was added to the bacterial culture at OD600nm=0.6-0.7 and then incubated for 4 h at 37° C. to allow protein production. Bacterial pellets were resuspended in lysis buffer (0.7 mg/mL lysozyme, 10 mM Tris pH 8, 100 mM NaCl, 1 mM EDTA, 1 mM DTT and a protease inhibitor cocktail) and then incubated for 1 h at 37° C. prior to centrifugation for 30 min at 15,000×g (4° C.). The supernatant was then filtered with 500 mL bottle top filter ([…]) (Corning®, New York, N.Y., USA) and then ran through a lactose-agarose column (Sigma®, St. Louis, Mo., USA). The protein was eluted in 1 mL fractions with 150 mM lactose solution. Purified fractions were analyzed by SDS-PAGE. The hGal-7 was then concentrated and purified using Centrifugal filter units (Amicon® Ultra-15, 10K) (EMD®, Etobicoke, ON) in 20 mM potassium phosphate at pH 7.1. All subsequent experiments with the recombinant proteins were performed in the same buffer solution unless mentioned otherwise. Brilliant Coomassie blue was purchased from BioRad® (Bio-Rad Laboratories®, Mississauga, ON, Canada). The recombinant human Bcl-2 protein fragment was purchased from Abcam® (Abcam®, Cambridge, UK, Cat #ab73696).
Western blotting. For the apoptosis tests, whole-cell extracts were homogenized and resuspended in RIPA buffer (Thermo Fisher Scientific®, Rockford, Ill., USA) containing protease inhibitors (Roche®, Laval, QC, Canada). Equal amounts of whole-cell extracts (25 μg) were separated on SDS-PAGE and transferred onto nitrocellulose membranes (Bio-Rad Laboratories®). The membranes were first blocked with 5% milk [w/v] in TBS/0.5% Tween® 20 [v/v] for 1 h at room temperature and subsequently blotted overnight in a solution of TBS containing 3% BSA [w/v] and 0.5% Tween 20 [v/v]. The following antibodies were used: a rabbit anti-Poly-(ADP-ribose) polymerase (PARP)-1 (p25) polyclonal antibody (1:5000; Epitomics®, Burlingame, Calif., USA) and a mouse anti-β-actin (1:10000; Sigma-Aldrich®, St-Louis, Mo., USA). Secondary antibodies consisted of horseradish peroxidase-conjugated donkey anti-rabbit (GE Healthcare®, Buckinghamshire, England) and sheep anti-mouse (GE Healthcare®) IgG. Detection was performed using the enhanced chemiluminescence method (GE Healthcare®). For the recombinant protein tests, each peptide was dissolved and maintained in 20 mM potassium phosphate at pH 7.1. The recombinant proteins and peptide dilutions were pre-incubated for 1 h at 4° C. prior to gel migration. The native polyacrylamide gel was made without SDS to allow molecular weight differentiation between the dimer and monomer. The following antibodies were used: a goat anti-Gal-7 antibody (1:10000; R&D Systems®, Minneapolis, Minn., USA), a mouse anti-Gal-1 antibody (1:10000; Proteintech®, Chicago, Ill., USA) and a rabbit anti-Bcl-2 antibody (1:1000; Abeam®, Cambridge, UK). Secondary antibodies consisted of donkey anti-goat (R&D Systems®) or sheep anti-mouse and sheep anti-rabbit (GE Healthcare®) IgG. Detection was performed as described above.
To determine whether these peptides could inhibit the formation of the hGal-7 homodimer, recombinant hGal-7 (0.5 μM) was incubated with increasing concentrations of hGal-7(13-25), hGal-7(85-102), hGal-7(95-108) or hGal 7(129-135) and the formation of homodimers was measured. To measure the ability of the peptides to disrupt the formation of hGal-7 dimers, a mild denaturing (low SDS) native gel electrophoresis, a commonly used approach to visualize monomer-dimer equilibrium, was used (FIG. 1A and FIG. 6).

Jurkat T cells [1] = assay: FITC-labeled hGal-7 binding on Jurkat T cells, flow cytometry; type: cell-based; details: FITC-labeled hGal-7 0.1 μM pre-incubated with peptide, FIG. 4
Experimental: FITC conjugation and hGal-7 binding assay. To assess hGal-7 binding onto Jurkat T cells, 5 μL of a 1.25 mg/mL fluorescein isothiocyanate (FITC)/DMSO solution was added to 300 μL of 1.7 μg/μL recombinant hGal-7 in a 0.1 M NaHCO3 pH 9.2 solution and incubated for 1 h at room temperature on a roller. FITC-labeled hGal-7 was then purified using a PD-10 Sepharose® column (GE healthcare) and eluted with PBS containing 0.01% [v/v] sodium azide. FITC-labeled hGal-7 (0.1 μM) was then pre-incubated with hGal-7(129-135) (or related peptides) in 20 mM potassium phosphate buffer pH 7.1 for 1 h at 4° C. Jurkat cells (5×10^5 cells per sample) were harvested in PBS-0.01% [v/v] sodium azide and incubated for 30 min on ice with the FITC-labeled hGal-7 with and without peptides. Cells were then washed with PBS-0.01% [v/v] sodium azide and resuspended in 400 μL of the same buffer and analyzed on a FACSCalibur® (BD Biosciences®).
(§1) It was thus tested whether hGal-7(129-135) could modulate the binding of hGal-7 on Jurkat T cells, a cell model that is commonly used to test the pro-apoptotic activity of galectins. For this purpose, recombinant hGal-7 was labeled with fluorescein isothiocyante (FITC) and its binding on the surface of Jurkat T cells was measured by flow cytometry in absence or presence of increasing concentrations of hGal-7(129-135). […]

Jurkat T cells [2] = assay: hGal-7-induced apoptosis of Jurkat T cells, PARP-1 cleavage by Western blotting; type: cell-based; details: 4 h at 37° C., serum-free RPMI, FIG. 5A
Experimental: Western blotting. For the apoptosis tests, whole-cell extracts were homogenized and resuspended in RIPA buffer (Thermo Fisher Scientific®, Rockford, Ill., USA) containing protease inhibitors (Roche®, Laval, QC, Canada). Equal amounts of whole-cell extracts (25 μg) were separated on SDS-PAGE and transferred onto nitrocellulose membranes (Bio-Rad Laboratories®). The membranes were first blocked with 5% milk [w/v] in TBS/0.5% Tween® 20 [v/v] for 1 h at room temperature and subsequently blotted overnight in a solution of TBS containing 3% BSA [w/v] and 0.5% Tween 20 [v/v]. The following antibodies were used: a rabbit anti-Poly-(ADP-ribose) polymerase (PARP)-1 (p25) polyclonal antibody (1:5000; Epitomics®, Burlingame, Calif., USA) and a mouse anti-β-actin (1:10000; Sigma-Aldrich®, St-Louis, Mo., USA). Secondary antibodies consisted of horseradish peroxidase-conjugated donkey anti-rabbit (GE Healthcare®, Buckinghamshire, England) and sheep anti-mouse (GE Healthcare®) IgG. […]
as §1

Jurkat T cells [3] = assay: Apoptosis/toxicity of peptide alone in Jurkat T cells, Annexin V/PI; type: cell-based
Experimental: FIG. 8A: Flow cytometry histogram showing propidium iodide (PI) (FL3) labeling of Jurkat T cells without or with 200 μM of hGal-7(129-135). FIG. 8B: Histogram showing the average percentage of Annexin-V (AV) positive Jurkat T cells in the presence of increasing concentrations of […]. FIG. 8C: Flow cytometry histogram showing PI (FL3) labeling of Jurkat T cells without or with 200 μM of PACAP28-38 FIG. 8D: Histogram showing the average percentage of AV-positive Jurkat T cells in the presence of increasing concentrations of PACAP28-38. The percentage of cell death was obtained as described above. Error bars represent standard deviation. Significance was calculated with respect to AF samples. Results are representative of three independent experiments.
Apoptosis assays with Annexin V/PI staining. Apoptosis was measured by flow cytometry using FITC-labeled Annexin V (Biolegend®, San Diego, Calif., USA) and propidium iodide. Briefly, the corresponding dilutions of recombinant hGal-7 and hGal-7(129-135) peptides were pre-incubated for 1 h at 4° C. in serum-free RPMI 1640 medium. 2.5×10^5 Jurkat cells were then harvested in the same medium and incubated with their corresponding dilutions at 37° C. for 4 h. Cells were washed once in PBS and once in binding buffer (0.01 M HEPES, 0.14 M NaCl, 2.5 mM CaCl2, pH 7.4). Cells were then incubated for 15 min with Annexin V in the dark at room temperature. A total of 400 μL of binding buffer containing 0.25 μg/mL propidium iodide was added to the cells before analysis by flow cytometry.

disruption of hGal-7 homodimers (in words) (hGal-7 homodimer) | Substance | fluorescent intensity of Jurkat T cells due to FITC-labeled hGal-7 binding (Jurkat T cells [1]) | inhibition of hGal-7-induced apoptosis, PARP-1 cleavage (Jurkat T cells [2]) | toxicity in Jurkat T cells (Jurkat T cells [3]; PI labeling at 200 μM, Annexin V at increasing concentrations, FIGS. 8A to 8D) | induction of apoptosis by peptide alone (Jurkat T cells [3]; peptide alone, FIG. 8)
less potent than hGal-7(129-135) | H-Asp-Gly-Phe-Lys-Ala-Val-Val-Gly-Asp-Ala-Gln-Tyr-His-His-NH2 (H-DGFKAVVGDAQYHH-NH2; listed as Homo sapiens) [hGal-7(95-108), peptide corresponding to residues 95-108 of hGal-7] | – | – | – | –
less potent than hGal-7(129-135) | H-Ile-Arg-Pro-Gly-Thr-Val-Leu-Arg-Ile-Arg-Gly-Leu-Val-NH2 (H-IRPGTVLRIRGLV-NH2; listed as Homo sapiens) [hGal-7(13-25), peptide corresponding to residues 13-25 of hGal-7] | – | – | – | –
less potent than hGal-7(129-135) | H-Phe-Glu-Val-Leu-lle-Ile-Ala-Ser-Asp-Asp-Gly-Phe-Lys-Ala-Val-Val-Gly-NH2 (H-FEVLIIASDDGFKAVVG-NH2; listed as Homo sapiens) [hGal-7(85-102), peptide corresponding to residues 85-102 of hGal-7] | – | – | – | –

Substance | disruption of hGal-7 homodimers (in words) (hGal-7 homodimer) | fluorescent intensity of Jurkat T cells due to FITC-labeled hGal-7 binding (Jurkat T cells [1]) | inhibition of hGal-7-induced apoptosis, PARP-1 cleavage (Jurkat T cells [2]) | toxicity in Jurkat T cells (Jurkat T cells [3]; PI labeling at 200 μM, Annexin V at increasing concentrations, FIGS. 8A to 8D) | induction of apoptosis by peptide alone (Jurkat T cells [3]; peptide alone, FIG. 8)
L-A-S-V-R-I-F-NH2 (LASVRIF-NH2; listed as Homo sapiens) [[Ala^130]hGal-7(129-135), alanine substitute peptide of hGal-7(129-135)] | abrogates the ability of the peptide to disrupt hGal-7 homodimers | – | – | – | –
PACAP(28-38): control peptide selected based on similarity in amino acid length and minimal toxicity on the cell line (GKRYKQRVKNK) [reference compound] | No such effect was observed | No such effect was observed | No such effect was observed | do not induce toxicity in Jurkat T cells | did not induce apoptosis in Jurkat T cells
